The target in this assay is T1, phosphorylated Mt-MviN KHD 681-963 (M. tuberculosis, UniProt P9WJK2 681-963, phosphothreonine at 947).
T1 sequence: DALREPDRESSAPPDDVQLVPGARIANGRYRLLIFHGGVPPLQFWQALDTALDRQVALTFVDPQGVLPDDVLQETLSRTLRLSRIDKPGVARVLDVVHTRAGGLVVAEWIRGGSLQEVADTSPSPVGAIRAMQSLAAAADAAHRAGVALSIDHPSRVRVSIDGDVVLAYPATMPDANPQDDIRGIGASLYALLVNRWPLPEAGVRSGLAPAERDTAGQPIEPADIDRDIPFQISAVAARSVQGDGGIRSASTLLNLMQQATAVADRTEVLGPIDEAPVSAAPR
The experiment in a line: ITC. (ITC needs no label: the signal is the heat of the interaction.)

B1: FhaA FHA domain (residues 390 to 525) (domain or fragment)
chain: PQGGGYAEPAGRDYDYGQSGAPDYGQPAPGGYSGYGQGGYGSAGTSVTLQLDDGSGRTYQLREGSNIIGRGQDAQFRLPDTGVSRRHLEIRWDGQVALLADLNSTNGTTVNNAPVQEWQLADGDVIRLGHSEIIVR
B1: binding was put at a Kd of 58 ± 2 nM.

Broadly, the Kd is the concentration at which binding is half-saturated.
